The text below walks through data of patent publication US20200190192A1.

Usually Kd stands for the equilibrium constant for the complex coming apart.

This assay deals with cynomolgus PD-1 expressed on CHO cells (cynomolgus monkey). The experiment in a line: cPD-1 binding titration (format not named; taken as cell binding).

B1: 1353-G10 H1 HC IgG (antibody, V domains shown)
VH: EVQLVQSGAEVKKPGASVKVSCKASGYTFDSYGISWVRQAPGQGLEWMGWISAYNGNTNYAQKLQGRVTMTTDTSTNTAYMELRSLRSDDTAVYYCARDVDYGTGSGYWGQGTLVTVSS
VL: SYELTQPPSVSVSPGQTARITCSGDALPKQYAYWYQQKPGQAPVMVIYKDTERPSGIPERFSGSSSGTKVTLTISGVQAEDEADYYCQSADNSITYRVFGGGTKVTVL
For the molecule B1, the Bmax came to 2960 and the Kd is 0.3 nM.

B2: 1353-G10 H1/vk1-39 IgG (antibody, V domains shown)
VH: B1 VH
VL: DIQLTQSPSSLSASVGDRVTITCSGDALPKQYAYWYQQKPGKAPKLLIYKDTERPSGVPSRFSGSSSGTKVTLTISSLQPEDFATYYCQSADNSITYRVFGGGTKVEIK
Take B2: the Bmax is 2800 and the Kd came to 2.3 nM.
